Measurements: the supplement of paper PMC10567573

B1: NP_002788.1 (parent)
chain: DGWIRVSSDNVADLHEKYSGSTP

Variants of: B1
Assay: protein stability index of a GFP-peptide fusion (GPS, HEK-293T) (PSI 1-6); higher = more stable
Settings: c terminus: native
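Note: lentivirally expressed fusion library, cells FACS-sorted into six equal-sized GFP/DsRed ratio bins, PSI computed from sequencing read fractions per bin weighted by bin number.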

| Variant | protein stability index |
| --- | --- |
| DGWIRVYSDNVADLHEKYSGSTP | 2.39 |
| DGWIRVDSDNVADLHEKYSGSTP | 4.55 |
| DGWIRVPSDNVADLHEKYSGSTP | 4.54 |
| DGWIRVESDNVADLHEKYSGSTP | 3.83 |
| DGWIRVWSDNVADLHEKYSGSTP | 2.64 |
| DGWIRVLSDNVADLHEKYSGSTP | 2.26 |
| DGWIRVKSDNVADLHEKYSGSTP | 4.58 |
| DGWIRVASDNVADLHEKYSGSTP | 2.32 |
| DGWIRVHSDNVADLHEKYSGSTP | 3.09 |
| DGWIRVVSDNVADLHEKYSGSTP | 2.06 |
| DGWIRVFSDNVADLHEKYSGSTP | 2.45 |
| DGWIRVQSDNVADLHEKYSGSTP | 3.86 |
| DGWIRVRSDNVADLHEKYSGSTP | 4.19 |
| DGWIRVTSDNVADLHEKYSGSTP | 2.24 |
| DGWIRVMSDNVADLHEKYSGSTP | 2.41 |
| DGWIRVISDNVADLHEKYSGSTP | 2.25 |
| DGWIRVCSDNVADLHEKYSGSTP | 2.07 |
| DGWIRVNSDNVADLHEKYSGSTP | 4.02 |
| DGWIRVGSDNVADLHEKYSGSTP | 3.63 |
| DGWGRVSSDNVADLHEKYSGSTP | 4.49 |
| DGWWRVSSDNVADLHEKYSGSTP | 3.58 |
| DGWPRVSSDNVADLHEKYSGSTP | 5.29 |
| DGWCRVSSDNVADLHEKYSGSTP | 3.19 |
| DGWYRVSSDNVADLHEKYSGSTP | 4.36 |
| DGWRRVSSDNVADLHEKYSGSTP | 3.53 |

| Variant | protein stability index |
| --- | --- |
| DGWDRVSSDNVADLHEKYSGSTP | 4.94 |
| DGWLRVSSDNVADLHEKYSGSTP | 3.18 |
| DGWVRVSSDNVADLHEKYSGSTP | 2.17 |
| DGWQRVSSDNVADLHEKYSGSTP | 2.94 |
| DGWKRVSSDNVADLHEKYSGSTP | 3.67 |
| DGWHRVSSDNVADLHEKYSGSTP | 4.58 |
| DGWARVSSDNVADLHEKYSGSTP | 2.92 |
| DGWNRVSSDNVADLHEKYSGSTP | 4.94 |
| DGWTRVSSDNVADLHEKYSGSTP | 2.81 |
| DGWERVSSDNVADLHEKYSGSTP | 3.9 |
| DGWMRVSSDNVADLHEKYSGSTP | 3.39 |
| DGWFRVSSDNVADLHEKYSGSTP | 4.14 |
| DGWSRVSSDNVADLHEKYSGSTP | 3.47 |
| DGWIRVSSDDVADLHEKYSGSTP | 2.54 |
| DGWIRVSSDEVADLHEKYSGSTP | 2.53 |
| DGWIRVSSDAVADLHEKYSGSTP | 1.84 |
| DGWIRVSSDHVADLHEKYSGSTP | 2.22 |
| DGWIRVSSDKVADLHEKYSGSTP | 2.28 |
| DGWIRVSSDLVADLHEKYSGSTP | 2.69 |
| DGWIRVSSDMVADLHEKYSGSTP | 2.67 |
| DGWIRVSSDPVADLHEKYSGSTP | 2.58 |
| DGWIRVSSDVVADLHEKYSGSTP | 2.39 |
| DGWIRVSSDCVADLHEKYSGSTP | 2.21 |
| DGWIRVSSDRVADLHEKYSGSTP | 2.04 |
| DGWIRVSSDSVADLHEKYSGSTP | 2.17 |

| Variant | protein stability index |
| --- | --- |
| DGWIRVSSDWVADLHEKYSGSTP | 2.42 |
| DGWIRVSSDTVADLHEKYSGSTP | 2.37 |
| DGWIRVSSDIVADLHEKYSGSTP | 2.28 |
| DGWIRVSSDYVADLHEKYSGSTP | 2.36 |
| DGWIRVSSDGVADLHEKYSGSTP | 2.86 |
| DGWIRVSSDFVADLHEKYSGSTP | 2.4 |
| SGWIRVSSDNVADLHEKYSGSTP | 2.53 |
| HGWIRVSSDNVADLHEKYSGSTP | 2.51 |
| IGWIRVSSDNVADLHEKYSGSTP | 2.92 |
| FGWIRVSSDNVADLHEKYSGSTP | 2.3 |
| AGWIRVSSDNVADLHEKYSGSTP | 2.37 |
| PGWIRVSSDNVADLHEKYSGSTP | 2.7 |
| WGWIRVSSDNVADLHEKYSGSTP | 2.8 |
| QGWIRVSSDNVADLHEKYSGSTP | 2.36 |
| TGWIRVSSDNVADLHEKYSGSTP | 2.48 |
| RGWIRVSSDNVADLHEKYSGSTP | 2.44 |
| KGWIRVSSDNVADLHEKYSGSTP | 2.09 |
| VGWIRVSSDNVADLHEKYSGSTP | 2.36 |
| CGWIRVSSDNVADLHEKYSGSTP | 2.23 |
| LGWIRVSSDNVADLHEKYSGSTP | 2.2 |
| YGWIRVSSDNVADLHEKYSGSTP | 2.07 |
| MGWIRVSSDNVADLHEKYSGSTP | 2.3 |
| NGWIRVSSDNVADLHEKYSGSTP | 2.33 |
| EGWIRVSSDNVADLHEKYSGSTP | 2.54 |
| DCWIRVSSDNVADLHEKYSGSTP | 2.21 |

| Variant | protein stability index |
| --- | --- |
| DHWIRVSSDNVADLHEKYSGSTP | 2.51 |
| DVWIRVSSDNVADLHEKYSGSTP | 2.49 |
| DMWIRVSSDNVADLHEKYSGSTP | 2.36 |
| DRWIRVSSDNVADLHEKYSGSTP | 2.97 |
| DWWIRVSSDNVADLHEKYSGSTP | 2.27 |
| DPWIRVSSDNVADLHEKYSGSTP | 2.71 |
| DQWIRVSSDNVADLHEKYSGSTP | 2.56 |
| DEWIRVSSDNVADLHEKYSGSTP | 2.51 |
| DDWIRVSSDNVADLHEKYSGSTP | 2.9 |
| DNWIRVSSDNVADLHEKYSGSTP | 2.42 |
| DFWIRVSSDNVADLHEKYSGSTP | 2.47 |
| DKWIRVSSDNVADLHEKYSGSTP | 2.13 |
| DYWIRVSSDNVADLHEKYSGSTP | 2.78 |
| DSWIRVSSDNVADLHEKYSGSTP | 2.13 |
| DLWIRVSSDNVADLHEKYSGSTP | 2.54 |
| DTWIRVSSDNVADLHEKYSGSTP | 2.09 |
| DAWIRVSSDNVADLHEKYSGSTP | 2.25 |
| DGWIRDSSDNVADLHEKYSGSTP | 4.78 |
| DGWIRASSDNVADLHEKYSGSTP | 2.27 |
| DGWIRGSSDNVADLHEKYSGSTP | 4.34 |
| DGWIRPSSDNVADLHEKYSGSTP | 5.05 |
| DGWIRYSSDNVADLHEKYSGSTP | 2.48 |
| DGWIRESSDNVADLHEKYSGSTP | 3.77 |
| DGWIRMSSDNVADLHEKYSGSTP | 2.31 |
| DGWIRQSSDNVADLHEKYSGSTP | 2.41 |

| Variant | protein stability index |
| --- | --- |
| DGWIRFSSDNVADLHEKYSGSTP | 2.77 |
| DGWIRRSSDNVADLHEKYSGSTP | 2.13 |
| DGWIRTSSDNVADLHEKYSGSTP | 3.15 |
| DGWIRNSSDNVADLHEKYSGSTP | 2.86 |
| DGWIRSSSDNVADLHEKYSGSTP | 3.41 |
| DGWIRCSSDNVADLHEKYSGSTP | 3 |
| DGWIRLSSDNVADLHEKYSGSTP | 2.78 |
| DGWIRISSDNVADLHEKYSGSTP | 2.21 |
| DGWIRKSSDNVADLHEKYSGSTP | 2.16 |
| DGWIRHSSDNVADLHEKYSGSTP | 2.18 |
| DGWIRWSSDNVADLHEKYSGSTP | 3.04 |
| DGWIMVSSDNVADLHEKYSGSTP | 2.64 |
| DGWILVSSDNVADLHEKYSGSTP | 2.5 |
| DGWIWVSSDNVADLHEKYSGSTP | 2.41 |
| DGWIGVSSDNVADLHEKYSGSTP | 3.15 |
| DGWIDVSSDNVADLHEKYSGSTP | 3.01 |
| DGWIIVSSDNVADLHEKYSGSTP | 2.67 |
| DGWICVSSDNVADLHEKYSGSTP | 2.83 |
| DGWIKVSSDNVADLHEKYSGSTP | 2.49 |
| DGWIPVSSDNVADLHEKYSGSTP | 4.15 |
| DGWINVSSDNVADLHEKYSGSTP | 2.63 |
| DGWIQVSSDNVADLHEKYSGSTP | 2.52 |
| DGWIAVSSDNVADLHEKYSGSTP | 2.31 |
| DGWISVSSDNVADLHEKYSGSTP | 2.51 |
| DGWITVSSDNVADLHEKYSGSTP | 2.54 |

| Variant | protein stability index |
| --- | --- |
| DGWIHVSSDNVADLHEKYSGSTP | 2.62 |
| DGWIYVSSDNVADLHEKYSGSTP | 2.76 |
| DGWIVVSSDNVADLHEKYSGSTP | 2.42 |
| DGWIFVSSDNVADLHEKYSGSTP | 2.52 |
| DGWIEVSSDNVADLHEKYSGSTP | 2.96 |
| DGWIRVSNDNVADLHEKYSGSTP | 2.31 |
| DGWIRVSRDNVADLHEKYSGSTP | 2.31 |
| DGWIRVSCDNVADLHEKYSGSTP | 2.13 |
| DGWIRVSWDNVADLHEKYSGSTP | 2.23 |
| DGWIRVSIDNVADLHEKYSGSTP | 2.32 |
| DGWIRVSFDNVADLHEKYSGSTP | 2.36 |
| DGWIRVSKDNVADLHEKYSGSTP | 2.68 |
| DGWIRVSTDNVADLHEKYSGSTP | 2.87 |
| DGWIRVSLDNVADLHEKYSGSTP | 2.28 |
| DGWIRVSHDNVADLHEKYSGSTP | 2.57 |
| DGWIRVSADNVADLHEKYSGSTP | 2.31 |
| DGWIRVSYDNVADLHEKYSGSTP | 2.14 |
| DGWIRVSDDNVADLHEKYSGSTP | 2.99 |
| DGWIRVSEDNVADLHEKYSGSTP | 2.23 |
| DGWIRVSMDNVADLHEKYSGSTP | 2.41 |
| DGWIRVSPDNVADLHEKYSGSTP | 3.95 |
| DGWIRVSQDNVADLHEKYSGSTP | 2.54 |
| DGWIRVSVDNVADLHEKYSGSTP | 2.42 |
| DGWIRVSGDNVADLHEKYSGSTP | 2.42 |
| DGAIRVSSDNVADLHEKYSGSTP | 5.34 |

| Variant | protein stability index |
| --- | --- |
| DGQIRVSSDNVADLHEKYSGSTP | 5.42 |
| DGPIRVSSDNVADLHEKYSGSTP | 5.26 |
| DGTIRVSSDNVADLHEKYSGSTP | 5.5 |
| DGHIRVSSDNVADLHEKYSGSTP | 5.35 |
| DGCIRVSSDNVADLHEKYSGSTP | 5.49 |
| DGEIRVSSDNVADLHEKYSGSTP | 5.43 |
| DGYIRVSSDNVADLHEKYSGSTP | 5.02 |
| DGKIRVSSDNVADLHEKYSGSTP | 5.21 |
| DGFIRVSSDNVADLHEKYSGSTP | 4.08 |
| DGDIRVSSDNVADLHEKYSGSTP | 5.23 |
| DGNIRVSSDNVADLHEKYSGSTP | 5.39 |
| DGVIRVSSDNVADLHEKYSGSTP | 5.65 |
| DGIIRVSSDNVADLHEKYSGSTP | 5.33 |
| DGGIRVSSDNVADLHEKYSGSTP | 5.28 |
| DGLIRVSSDNVADLHEKYSGSTP | 5.26 |
| DGSIRVSSDNVADLHEKYSGSTP | 5.54 |
| DGRIRVSSDNVADLHEKYSGSTP | 5.15 |
| DGMIRVSSDNVADLHEKYSGSTP | 5.35 |
| DGWIRVSSRNVADLHEKYSGSTP | 2.3 |
| DGWIRVSSHNVADLHEKYSGSTP | 2.59 |
| DGWIRVSSFNVADLHEKYSGSTP | 2.27 |
| DGWIRVSSPNVADLHEKYSGSTP | 2.25 |
| DGWIRVSSCNVADLHEKYSGSTP | 2.4 |
| DGWIRVSSGNVADLHEKYSGSTP | 2.82 |
| DGWIRVSSYNVADLHEKYSGSTP | 2.24 |

| Variant | protein stability index |
| --- | --- |
| DGWIRVSSWNVADLHEKYSGSTP | 2.19 |
| DGWIRVSSVNVADLHEKYSGSTP | 2.54 |
| DGWIRVSSNNVADLHEKYSGSTP | 2.29 |
| DGWIRVSSENVADLHEKYSGSTP | 2.34 |
| DGWIRVSSSNVADLHEKYSGSTP | 2.74 |
| DGWIRVSSANVADLHEKYSGSTP | 2.35 |
| DGWIRVSSTNVADLHEKYSGSTP | 2.43 |
| DGWIRVSSKNVADLHEKYSGSTP | 2.36 |
| DGWIRVSSMNVADLHEKYSGSTP | 2.59 |
| DGWIRVSSINVADLHEKYSGSTP | 2.27 |
| DGWIRVSSQNVADLHEKYSGSTP | 2.41 |
| DGWIRVSSLNVADLHEKYSGSTP | 2.42 |
| DGWIRVSSDNEADLHEKYSGSTP | 1.92 |
| DGWIRVSSDNFADLHEKYSGSTP | 2.37 |
| DGWIRVSSDNDADLHEKYSGSTP | 2.54 |
| DGWIRVSSDNHADLHEKYSGSTP | 2.29 |
| DGWIRVSSDNAADLHEKYSGSTP | 2.53 |
| DGWIRVSSDNCADLHEKYSGSTP | 2.41 |
| DGWIRVSSDNGADLHEKYSGSTP | 2.7 |
